Source: patent US20210388081A1 (Memorial Sloan Kettering, published 2021)

Columns and labels:
SLAMF9 protein = SLAMF9 protein (UniProt Q96A28 19-236, limits assumed); experiment: phage clone on SLAMF9 protein
[1] = target: T1, FcRL6, overexpressed on 3T3 cells (UniProt Q6DN72 20-434, limits assumed); experiment: phage clone on 3T3-FcRL6 cells
T1 construct: whole, on cells
T1 sequence (looked up): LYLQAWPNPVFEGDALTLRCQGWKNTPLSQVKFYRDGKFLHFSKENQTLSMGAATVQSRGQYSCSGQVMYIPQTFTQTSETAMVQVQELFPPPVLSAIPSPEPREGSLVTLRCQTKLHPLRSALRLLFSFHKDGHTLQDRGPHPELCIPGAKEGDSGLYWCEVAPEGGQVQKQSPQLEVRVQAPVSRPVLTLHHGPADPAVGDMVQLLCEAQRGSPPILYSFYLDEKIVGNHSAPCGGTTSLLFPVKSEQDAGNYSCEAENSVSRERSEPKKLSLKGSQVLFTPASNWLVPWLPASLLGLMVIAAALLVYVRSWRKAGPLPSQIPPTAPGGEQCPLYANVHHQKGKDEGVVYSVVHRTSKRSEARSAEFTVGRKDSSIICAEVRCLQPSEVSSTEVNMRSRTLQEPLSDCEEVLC

[2] = target: T2, FcRL4, overexpressed on 3T3 cells (UniProt Q96PJ5 20-515, limits assumed); experiment: phage clone on 3T3-FcRL4 cells
T2 construct: whole, on cells
T2 sequence (looked up): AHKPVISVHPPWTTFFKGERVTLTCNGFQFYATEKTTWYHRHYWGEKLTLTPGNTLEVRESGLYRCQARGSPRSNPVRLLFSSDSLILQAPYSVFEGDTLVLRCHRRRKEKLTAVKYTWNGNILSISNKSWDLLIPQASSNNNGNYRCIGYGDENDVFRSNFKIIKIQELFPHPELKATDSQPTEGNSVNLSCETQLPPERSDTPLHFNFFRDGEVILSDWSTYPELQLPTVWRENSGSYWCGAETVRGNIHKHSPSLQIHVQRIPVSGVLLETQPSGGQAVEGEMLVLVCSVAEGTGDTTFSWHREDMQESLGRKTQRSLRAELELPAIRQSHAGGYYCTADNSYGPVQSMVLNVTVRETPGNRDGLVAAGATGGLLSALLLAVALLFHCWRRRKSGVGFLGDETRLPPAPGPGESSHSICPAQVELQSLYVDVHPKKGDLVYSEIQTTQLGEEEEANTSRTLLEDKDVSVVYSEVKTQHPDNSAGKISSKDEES

Measured: binding result

Chain of SLAMF9 protein (Q96A28 19-236 limits assumed): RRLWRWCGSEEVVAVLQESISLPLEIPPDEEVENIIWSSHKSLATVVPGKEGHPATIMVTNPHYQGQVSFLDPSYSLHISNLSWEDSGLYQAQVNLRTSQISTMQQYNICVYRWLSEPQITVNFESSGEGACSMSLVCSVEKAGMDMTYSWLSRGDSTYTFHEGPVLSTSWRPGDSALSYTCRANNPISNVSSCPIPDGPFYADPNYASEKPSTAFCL

B1: ET200-042 (scFv)
scFv: QSVVTQPPSVSGAPGQTVTISCTGGSSNIGTGYFVNWYQQVPGKAPKLLILGNNNRPSGVPDRLSGSTSGTSASLAITGLQAEDEGTYYCQSYDSSLSGYVFGTGTKVTVLGSRGGGGSGGGGSGGGGSLEMAQVQLQQSGPGLVKPSQTLSLTCGISGDSVSTNSVAWHWIRQSPSRGLEWLGRTYYRSKWSNDYGVSVKSRITIIPDTSKNQFSLQLNSVTPEDTAVYYCARSSSWYQIFDYWGQGTLVTVSSTSGQAGQHHHHHHGAYPYDVPDYAS
notes: screened as phage clone; entry is VL-linker-VH-His tag-HA tag
no binding: all assays above

B2: ET200-079 (scFv)
scFv: SYELTQPPSASGTPGQRVTISCSGSSSNIGSNYVYWYQQLPGTAPKLFIYRNNQRPSGVPDRFSGSKSGTSASLAISGLRSEDEADYYCAAWDDSLSGYLFGTGTKVTVLGSRGGGGSGGGGSGGGGSLEMAEVQLVESGGGLVQPGRSLRLSCAASGFTFDDYAMHWVRQAPGKGLEWVSGISWNSGSIGYADSVKGRFTISRDNAKNSLYLQMNSLRAEDTALYYCANGDSNYYYGMDVWGQGTTVTVSSTSGQAGQHHHHHHGAYPYDVPDYAS
notes: as for B1
no binding: all assays above

B3: ET200-003 (scFv)
scFv: QSVLTQPPSVSVSPGQTASISCSGNKLGTKYVYWYQKRPGQSPVLVMYEDNQRPSGIPERFSGSNSGNTATLTIRGTQTVDEADYYCQAWDSDTFVVFGGGTKVTVLGSRGGGGSGGGGSGGGGSLEMAEVQLVETGGGVVQPGRSLRLSCAASGFTFSSYGMHWVRQAPGKGLEWVAVISHDGSNKYYADSVKGRFTISRDNSKDTLYLQMNSLRGEDTAVYYCARSNQWSGYFSFDYWGQGTLVTVSSTSGQAGQHHHHHHGAYPYDVPDYAS
notes: as for B1
no binding: all assays above

B4: ET200-100 (scFv)
scFv: NFMLTQPHSVSESPGKTVTISCTRSSGSIASNFVQWYQQRPGSAPTPMIYEDNNRPPGVPDRFSASVDSSSNSASLTISGLKTEDEADYYCQSYDTSNVVFGGGTKLTVLGSRGGGGSGGGGSGGGGSLEMAEVQLVESGGGLVQPGGSLRLSCAASGFTFSSYEMNWVRQAPGKGLEWVSYISSSGSTIYYADSVKGRFTISRDNAKNSLYLQMNSLRAEDTAVYYCARWDYGMDVWGQGTTVTVSSTSGQAGQHHHHHHGAYPYDVPDYAS
notes: as for B1
no binding: all assays above

B5: ET200-104 (scFv)
scFv: NFMLTQPHSVSESPGKTVTISCTRSSGSIASNYVQWYQQRPGSAPTTVIYEDNQRPSGVPDRFSGSIDSSSNSASLTISGLKTEDEADYYCQSYDSSNVVFGGGTKVTVLGSRGGGGSGGGGSGGGGSLEMAEVQLVESGGGLVQPGGSLRLSCAASGFTFSSYEMNWVRQAPGKGLEWVSYISSSGSTIYYADSVKGRFTISRDNAKNSLYLQMNSLRAEDTAVYYCARWDYGMDVWGQGTTVTVSSTSGQAGQHHHHHHGAYPYDVPDYAS
notes: as for B1
no binding: all assays above

B6: ET200-044 (scFv)
scFv: QSVLTQPPSVSVSPGQTATIACSGHKLGDKYASWYQQKSGQSPVLIIYQDNKRPSGIPERFSGSNSGNTATLTISGTQALDEADYYCQAWDSSTYVAFGGGTKLTVLGSRGGGGSGGGGSGGGGSLEMAQVQLQESGPGLVKPSETLSLTCVVSGGSISSSNWWSWVRQPPGKGLEWIGEIYHSGSPNYNPSLKSRVTISVDKSKNQFSLKLSSVTAADTAVYYCARMTTHTFGYDAWGQGTLVTVSSTSGQAGQHHHHHHGAYPYDVPDYAS
notes: as for B1
no binding: all assays above

B7: ET200-006 (scFv)
scFv: SYVLTQPPSVSVAPGKTARITCGGNNIGSKSVHWYQQKPGQAPVVVIHYDSDRPSGIPERFSGSNSGNTATLTISRVEAGDEADYYCQVWDSSSDHPYVFGTGTKVTVLGSRGGGGSGGGGSGGGGSLEMAEVQLVQSGAEVKKPGASVKVSCKASGYTFTTYGISWVRQAPGQGLEWMGWINTYNGHTNYAQKLQGRATMTADTSTNTAYMELRSLRSDDTAVYYCARVIYGSGDYWGQGTLVTVSSTSGQAGQHHHHHHGAYPYDVPDYAS
notes: as for B1
no binding: all assays above

B8: ET200-045 (scFv)
scFv: QPVLTQPPSVSVAPGKTATITCGGNNIGSESVHWYHQKPGQAPVLVIYDDAGRPSGIPERFTGSNSGNTATLTISRVEAGDEADYYCQVWDRNSAQFVFGPGTKVTVLGSRGGGGSGGGGSGGGGSLEMAEVQLVQSGAEVKKPGASVKVSCKASGYTFTSYGISWVRQAPGQGLEWMGWISAYNGNTNYAQKLQGRVTMTTDTSTSTAYMELRSLRSDDTAVYYCARGVHLDWWGQGTLVTVSSTSGQAGQHHHHHHGAYPYDVPDYAS
notes: as for B1
no binding: all assays above

B9: ET200-099 (scFv)
scFv: QSVLTQPPSASGTPGQRVTISCSGSSSNIGSNTVNWYQQLPGTAPKLLIYSNDQRPSGVPDRFSGSKSGTSASLAISGLQSEDEADYYCASWDDSLNGRYVFGTGTKVTVLGSRGGGGSGGGGSGGGGSLEMAQVQLVQSGAEVRKPGASVKVSCKTSGYTFSWYAIHWVRQAPGQRLEWMGWINAGNGNTKYSQKFQGRVSLTRDTSASTAYMELSSLRSDDTAVYYCARPDNYGSGGDVFDIWGQGTMVTVSSTSGQAGQHHHHHHGAYPYDVPDYAS
notes: as for B1
no binding: all assays above

B10: ET200-081 (scFv)
scFv: QSALTQPASVSGSPGQSITISCTGTSSDIGGYNYVSWYQQHPGKAPKLMIYDVSNRPSGVSNRFSGSKSGNTASLTISGLQAEDEADYYCISYTRTWNPYVFGSGTKVTVLGSRGGGGSGGGGSGGGGSLEMAEVQLVQSGGGVVQPGGSLRLSCAASGFTFDDYAMHWVRQAPGKGLEWVSLISGDGGSTYYADSVKGRFTISRDNSKNSLYLQMNSLRTEDTALYYCAKDRAAAGYYYYGMDVWGQGTTVTVSSTSGQAGQHHHHHHGAYPYDVPDYAS
notes: as for B1
no binding: all assays above

B11: ET200-069 (scFv)
scFv: QSVVTQPPSASGTPGQRVTISCSGSSSNIGSNYVYWYQQLPGTAPKLLIYSNNQRPSGVPDRFSGSKSGTSASLAISGLRSEDEADYYCAAWDDSLSGYVFGTGTKLTVLGSRGGGGSGGGGSGGGGSLEMAQVQLQQWGAGLLKPSETLSLTCAVYGGSFSGYYWSWIRQPPGKGLEWIGEINHSGSTNYNPSLKSRVTISVDTSKNQFSLKLSSVTAADTAVYYCARLYEGGYHGWGSWLSSDSWGQGTLVTVSSTSGQAGQHHHHHHGAYPYDVPDYAS
notes: screened as phage clone; entry is VL-linker-VH-His tag-HA tag; also called ET200-69
no binding: all assays above

B12: ET200-101 (scFv)
scFv: QAVLTQPPSASGAPGQRVTVSCSGSNSNIGSNYVNWYQQFPGTAPKLLMYSSSQRPSGVPDRFSGSKSGTSASLAISGLHSEDEADYYCATWDDSLNAWVFGGGTKLTVLGSRGGGGSGGGGSGGGGSLEMAEVQLVQSGAEVRKPGASVKVSCKTSGYTFTWYAIHWVRQAPGQRLEWMGWINAGSGNTKYSQKFQGRVTLTRDTSASTAYMELSSLRSDDTAVYYCARPNNYGSGGDVFDIWGQGTMVTVSSTSGQAGQHHHHHHGAYPYDVPDYAS
notes: as for B1
no binding: all assays above

B13: ET200-098 (scFv)
scFv: QPVLTQPPSVSKGLRQTATLTCTGNSNNVGNLGVAWLQQHQGHPPKLLSYRNNNRPSGISERLSASRSGNTASLTITGLQPEDEADYYCSAWDSSLSAWVFGGGTKLTVLGSRGGGGSGGGGSGGGGSLEMAEVQLVESGGVVVQPGGSLRLSCAASGFTFDDYAMHWVRQAPGKGLEWVSLINWDGGSTYYADSVKGRFTISRDNSKNSLYLQMNSLRAEDTALYYCAKGMGLRAFDYWGQGTLVTVSSTSGQAGQHHHHHHGAYPYDVPDYAS
notes: as for B1
no binding: all assays above

B14: ET200-097 (scFv)
scFv: LPVLTQPPSVSVSPGQTAIITCSGDKLGEKYVSWYQQKPGQSPVLVIDQDTRRPSGIPERFSGSNSGTTATLTISGTQAMDEADYYCQAWDRGVVFGGGTKLTVLGSRGGGGSGGGGSGGGGSLEMAEVQLVESGGDLVQPGRSLRLSCAASGFTFNDYAMHWVRQAPGKGLEWVSGISWSGNNIGYADSVKGRFTISRDNAKNSLYLQMNSLRAEDTALYYCAKDSIRYGITWGGFDYWGQGTLVTVSSTSGQAGQHHHHHHGAYPYDVPDYAS
notes: as for B1
no binding: all assays above
